Laboratory results reported in patent publication US20190010498, “CHEMICALLY MODIFIED AMPA RECEPTOR RNA APTAMERS” (The Research Foundation for the State University of New York, published 2019).

Key:
[1] = target: T1, GluA2Qflip AMPA receptor (homomeric, Q/R site unedited) (UniProt P19491-2 P19491-2:22-883); assay: competition; homologous competition with 32P-FN1040, nylon filter; 150 mM NaCl, 3 mM KCl, 1 mM CaCl2, 1 mM MgCl2, 10 mM HEPES pH 7.4; 10 ng/ul tRNA; NBQX displaces about 50%, glutamate about 30%, BDZ-f/BDZ-g none; conditions: tags: transiently expressed in HEK-293S cells; chain copies: 4 inferred
From the text: Binding Affinity of FN1040 on GluA2Qflip. The binding affinity, Kd, of FN1040 for GluA2Qflip was estimated from a homologous competitive binding experiment. In this experiment, intact GluA2Qflip receptors embedded in HEK-293 cell membrane fragments were mixed with ³²P-labeled or hot FN1040 (see RNA 5′-end Labeled with ³²P.). The unlabeled FN1040 (or cold FN1040) was used to compete with the hot FN1040 for the binding to GluA2Qflip receptors. As shown, the normalized radioactivity as a function of the cold FN1040 was determined (FIG. 1c).
Homologous Competitive Binding Assay. FN1040 was transcribed in a transcription reaction mixture with additional 0.4 μM of ³²P-α-ATP (800 Ci/mmol). The ³²P-FN1040 product was separated by 8M urea PAGE and recovered by electroelution method (Elutrap, GE Health). Before mixing with the cell membrane fragments, the RNA was run through a refolding procedure, i.e. 95° C./3′→50° C./30′→room temperature/30′. The binding mixture contained 0.6 nM of GluA2Qflip receptor, 10 ng/μl of yeast tRNA, 10 nM of ³²P-FN1040, and 0 to 1.5 μM of unlabeled FN1040 in the extracelluar buffer. […] The radioactivity remaining on the filter was counted in a scintillation counter (Beckman LS6500). […] Assuming a one-site binding model, we determined the Kd of the aptamer bound to the receptor by fitting the binding data to eq 2⁵² below, […]

[2] = target: T1, GluA2Qflip AMPA receptor (homomeric, …); assay: inhibition; whole-cell current recording, closed-channel (0.1 mM glutamate), -60 mV, 22 C; conditions: tags: transiently expressed in HEK-293S cells; chain copies: 4 inferred
From the text: Functional Characterization of FN1040 by Whole-Cell Recording. Using whole-cell current recording, we first tested each of the six putative RNA aptamers against GluA2Qflip, the SELEX target. […] To verify this, we tested the aptamer at increasing concentrations against the GluA2Qflip channel expressed in HEK-293 cells (FIG. 1b). On the closed-channel conformation, we observed a linear relationship between the A/A(I) value and the aptamer concentration (FIG. 1b). Using eq 1 (see Data Analysis of Whole-Cell Current Amplitude), we estimated that the inhibition constant, K, for the closed-channel form of GluA2Qflip was 2.3±0.7 μM (FIG. 1b).
Whole-Cell Current Recording. […] For recording of the NMDA channels, the intracellular solution contained (in mM) 140 CsCl, 1 MgCl₂, 0.1 EGTA, and 10 HEPES (pH 7.2 adjusted by Mg(OH)₂) and the extracellular solution contained 2 μM of glycine and (in mM) 135 NaCl, 5.4 KCl, 1.8 CaCl₂, 10 glucose and 5 HEPES (pH 7.2 adjusted by NaOH).¹⁰ The glutamate-induced whole-cell current was recorded using an Axopatch-200B amplifier at a cutoff frequency of 2-20 kHz by a built-in, eight-pole Bessel filter and digitized at 5-50 kHz sampling frequency using a Digidata 1322A from Axon Instruments (Molecular Devices, Sunnyvale, Calif.). […]

T1 sequence (P19491 other isoform, or with tags, fused parts or gaps): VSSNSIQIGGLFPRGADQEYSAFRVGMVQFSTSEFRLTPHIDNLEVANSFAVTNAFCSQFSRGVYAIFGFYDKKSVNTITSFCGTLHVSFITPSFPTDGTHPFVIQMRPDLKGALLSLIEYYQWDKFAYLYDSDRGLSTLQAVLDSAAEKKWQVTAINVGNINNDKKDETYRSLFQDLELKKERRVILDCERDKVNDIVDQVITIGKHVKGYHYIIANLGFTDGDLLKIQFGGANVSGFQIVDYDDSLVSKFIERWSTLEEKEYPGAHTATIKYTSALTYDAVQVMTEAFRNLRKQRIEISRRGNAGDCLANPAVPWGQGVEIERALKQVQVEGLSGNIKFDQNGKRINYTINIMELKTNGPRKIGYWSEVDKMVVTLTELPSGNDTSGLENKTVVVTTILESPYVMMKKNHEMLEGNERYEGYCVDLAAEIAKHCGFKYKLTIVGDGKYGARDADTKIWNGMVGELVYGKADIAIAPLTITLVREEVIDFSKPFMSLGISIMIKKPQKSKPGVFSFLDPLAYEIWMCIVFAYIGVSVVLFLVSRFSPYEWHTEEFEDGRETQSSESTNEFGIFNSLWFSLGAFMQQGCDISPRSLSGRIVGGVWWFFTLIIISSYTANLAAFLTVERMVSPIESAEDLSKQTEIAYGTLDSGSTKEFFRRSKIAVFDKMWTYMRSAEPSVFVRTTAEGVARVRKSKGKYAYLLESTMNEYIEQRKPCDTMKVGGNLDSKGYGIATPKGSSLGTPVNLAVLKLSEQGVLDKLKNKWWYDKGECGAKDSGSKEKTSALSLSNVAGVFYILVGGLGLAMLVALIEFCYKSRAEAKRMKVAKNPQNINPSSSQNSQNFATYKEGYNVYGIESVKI

B1: FN1040 (ssRNA)
RNA: GGGAGAAUUCAACUGCCAUCUAGGCACGCUACUGUGAGUGUUGUGAUGGCGGCUGAACGAUCGAAACGGAACUGUAGUACUACAAGCUUCUGGACUCGGU
modifications: 2'-F at all A, C and U; G is 2'-OH
How did the Kd [1] turn out when B1 was run?
The Kd was 20 nM.

What about the Ki [2] of the same binder?
Its Ki is 2300 nM.
